Bounds are passed on as bounds.

Test [1] has as its target 108 of 110 HLA types. The test can be described thus: cell-based or functional assay.
Test [2] deals with the alloreactive alleles (2 of 110 HLA types). Nature of the test: cell-based or functional assay.

B1: E7-11-28 MGTM (MG-modified TCR E7-11-28) (TCR)
TCR alpha: GQQVMQIPQYQHVQEGEDFTTYCNSSTTLSNIQWYKQRPGGHPVFLIQLVKSGEVKKQKRLTFQFGEAKKNSSLHITATQTTDVGTYFCAGIGSSNTGKLIFGQGTTLQVKPDIQNPDPAVYQLRDSKSSDKSVCLFTDFDSQTNVSQSKDSDVYITDKTVLDMRSMDFKSNSAVAWSNKSDFACANAFNNSIIPEDTFFPSSDVPCDVKLVEKSFETDTNLNFQNLLVIVLRILLLKVAGFNLLMTLRLWS
TCR beta: EPEVTQTPSHQVTQMGQEVILRCVPISNHLYFYWYRQILGQKVEFLVSFYNNEISEKSEIFDDQFSVERPDGSNFTLKIRSTKLEDSAMYFCAITGRVSYEQYFGPGTRLTVTEDLNKVFPPEVAVFEPSKAEIAHTQKATLVCLATGFFPDHVELSWWVNGKEVHSGVSTDPQPLKEQPALNDSRYCLSSRLRVSATFWQNPRNHFRCQVQFYGLSENDEWTQDRAKPVTQIVSAEAWGRADCGITSASYHQGVLSATILYEILLGKATLYAVLVSALVLMAMVKRKDFGSGRAKRSGSG
B1: the inhibition on target cell growth after 48 h of co-culture (alloreactivity screen) (% target cell inhibition) in test [1] was under 20; in test [2], over 20.
